Molecular target: HLA-A*02:01/NY-ESO-1 (modified, …) peptide-MHC on peptide-loaded T2 cells (human)
Test: cell-based or functional assay

Which EC50[nM] of MAGE-A3 peptide for activator C563 in Jurkat NFAT-luciferase cells co-expressing this inhibitor; T2 cells with 50 uM NY-ESO-1 peptide does the source give for “C2057 + C2058 (TCR 1G4:α95LY alpha ECD and beta ECD, each fused to LILRB1 TM and ICD)” here?
The EC50[nM] of MAGE-A3 peptide for activator C563 in Jurkat NFAT-luciferase cells co-expressing this inhibitor; T2 cells with 50 uM NY-ESO-1 peptide was > 10000 nM.

Reference: patent US20230029341A1
